According to US20170239346A1, “NOVEL COCAINE HAPTENS AND NANOFIBER-BASED COCAINE VACCINES” (priority 2016, published 2017):
Residues, ends and D or L forms follow the SMILES beside them. *: point of attachment. X1 = COC(=O)[C@H]1[C@@H](OC(=O)c2ccccc2)C[C@@H]2CC[C@H]1N2CCCCC(=O)*

Assay: Limulus amebocyte lysate (LAL) chromogenic end point endotoxin assay
Conditions: same volume and concentration used for immunizations

COC(=O)[C@H]1[C@@H](OC(=O)c2ccccc2)C[C@@H]2CC[C@H]1N2CCCCC(=O)NCC(=O)NCC(=O)NCC(=O)N[C@@H](Cc1ccccc1)C(=O)N[C@@H](CCCCN)C(=O)N[C@@H](Cc1ccccc1)C(=O)N[C@@H](CCC(=O)O)C(=O)N[C@@H](Cc1ccccc1)C(=O)N[C@@H](CCCCN)C(=O)N[C@@H](Cc1ccccc1)C(=O)N[C@@H](CCC(=O)O)C(N)=O [CocKFE8] (X1-GGGFKFEFKFE-NH2)
endotoxin levels: less than 0.1 EU/mL
